Test [1] addresses SpyCatcher-H5 hemagglutinin construct (avian influenza A). Description: SpyTag/SpyCatcher reaction, SDS-PAGE.
The target of test [2] is SpyCatcher-CBU1910 fusion protein (Coxiella burnetii). Description: SpyTag/SpyCatcher conjugation, SDS-PAGE.

B1: CpG-ST-E2 nanoparticle (ST-E2 with CpG 1826 conjugated in the internal cavity) (other)
chain: MAHIVMVDAYKPTKGSGTAGGGSGSLSVPGPAAAEEKAAPAAAKPATTEGEFPETREKMSGIRRAIAKAMVHSKHTAPHVTLMDEADVTKLVAHRKKFKAIAAEKGIKLTFLPYVVKALVSALREYPVLNTSIDDETEEIIQKHYYNIGIAADTDRGLLVPVIKHADRKPIFALAQEINELAEKARDGKLTPGEMKGASCTITNIGSAGGQWFTPVINHPEVAILGIGRIAEKPIVRCGEIVAAPMLALSLSFDHRMIDGATAQKALNHIKRLLSDPELLLMEA
On to B1, for which the binding result in test [1] and in test [2] was “binds” in each case.
